Reference: US10428140B2, “Anti-EphA4 antibody” (EISAI R&D MANAGEMENT CO., LTD., priority 2015, dated 2019)

T1: human EphB3 (Homo sapiens, UniProt P54753)
T1 construct: a protein of the extracellular region of each human Eph receptor fused with the SEAP protein and the His tag; made in house; host or cells: Expi293F cells
T1 sequence (P54753 34-559 limits assumed): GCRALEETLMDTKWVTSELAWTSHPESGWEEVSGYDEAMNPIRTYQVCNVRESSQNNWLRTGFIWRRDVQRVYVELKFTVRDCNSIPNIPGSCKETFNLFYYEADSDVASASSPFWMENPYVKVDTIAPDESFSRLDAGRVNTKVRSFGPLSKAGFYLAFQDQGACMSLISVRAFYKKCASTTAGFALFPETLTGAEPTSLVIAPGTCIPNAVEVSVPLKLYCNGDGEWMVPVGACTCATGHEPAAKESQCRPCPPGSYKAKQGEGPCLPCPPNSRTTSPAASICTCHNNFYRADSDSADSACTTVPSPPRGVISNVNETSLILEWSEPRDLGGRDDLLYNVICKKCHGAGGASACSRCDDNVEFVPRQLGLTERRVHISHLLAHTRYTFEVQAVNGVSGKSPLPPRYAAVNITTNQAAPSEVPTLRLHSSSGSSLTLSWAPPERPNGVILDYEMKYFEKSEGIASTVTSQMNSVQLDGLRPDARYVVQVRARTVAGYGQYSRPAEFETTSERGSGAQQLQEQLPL

T2: human EphA3 (Homo sapiens, UniProt P29320)
T2 construct: a protein of the extracellular region of each human Eph receptor fused with the SEAP protein and the His tag; made in house; host or cells: Expi293F cells (culture supernatant)
T2 sequence (P29320 21-541 limits assumed): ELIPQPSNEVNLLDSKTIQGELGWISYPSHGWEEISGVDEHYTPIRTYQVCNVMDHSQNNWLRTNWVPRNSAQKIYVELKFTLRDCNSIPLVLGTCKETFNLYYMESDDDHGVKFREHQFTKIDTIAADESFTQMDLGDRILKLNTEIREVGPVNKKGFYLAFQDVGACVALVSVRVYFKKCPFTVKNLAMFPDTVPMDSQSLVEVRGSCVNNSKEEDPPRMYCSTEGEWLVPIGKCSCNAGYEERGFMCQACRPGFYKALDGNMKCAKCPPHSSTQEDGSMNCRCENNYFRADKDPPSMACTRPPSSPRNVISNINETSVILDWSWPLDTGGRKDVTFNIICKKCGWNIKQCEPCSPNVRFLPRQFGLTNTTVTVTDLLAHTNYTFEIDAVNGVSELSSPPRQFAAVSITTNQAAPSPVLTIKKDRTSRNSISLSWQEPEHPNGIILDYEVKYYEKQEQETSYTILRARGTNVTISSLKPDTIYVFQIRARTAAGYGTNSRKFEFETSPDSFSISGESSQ

T3: human EphA8 (Homo sapiens, UniProt P29322)
T3 construct: a protein of the extracellular region of each human Eph receptor fused with the SEAP protein and the His tag; made in house; host or cells: Expi293F cells (culture supernatant)
T3 sequence (P29322 28-542 limits assumed): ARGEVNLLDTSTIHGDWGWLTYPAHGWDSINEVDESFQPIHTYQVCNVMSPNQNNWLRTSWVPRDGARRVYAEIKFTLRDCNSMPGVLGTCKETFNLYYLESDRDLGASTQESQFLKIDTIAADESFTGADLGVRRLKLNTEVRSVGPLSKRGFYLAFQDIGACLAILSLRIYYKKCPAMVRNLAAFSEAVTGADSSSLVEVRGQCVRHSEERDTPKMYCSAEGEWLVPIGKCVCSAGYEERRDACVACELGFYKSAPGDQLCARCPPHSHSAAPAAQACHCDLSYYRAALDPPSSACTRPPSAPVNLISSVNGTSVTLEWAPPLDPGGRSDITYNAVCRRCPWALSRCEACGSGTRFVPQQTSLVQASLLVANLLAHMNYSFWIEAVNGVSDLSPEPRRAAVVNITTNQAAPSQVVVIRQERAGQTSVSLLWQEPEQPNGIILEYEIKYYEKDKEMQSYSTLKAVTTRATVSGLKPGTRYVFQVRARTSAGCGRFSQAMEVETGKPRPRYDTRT


What was measured:
Test in all cases: Selectivity ELISA of humanized antibodies for human Eph receptor
Assay type in all cases: binding
Settings in all cases: coated protein 1 nM
[1] = molecular target: T1, human EphB3
How it was run: (§1)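 Capture ELISA: anti-6-His coat, 1% BlockAce block, Eph ECD-SEAP-His (1 nM final, Expi293F supernatant) 1 h RT, humanized Ab 1 h RT, HRP anti-IgG 1 h RT, TMB, H2SO4 stop, A450.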

[2] = molecular target: SEAP-His (Homo sapiens, UniProt P05187)
How it was run: as §1

[3] = molecular target: T2, human EphA3
How it was run: as §1

[4] = molecular target: T3, human EphA8
How it was run: as §1

[5] = molecular target: T4, human EphA2 (Homo sapiens, UniProt P29317)
T4 construct: a protein of the extracellular region of each human Eph receptor fused with the SEAP protein and the His tag; made in house; host or cells: Expi293F cells (culture supernatant)
How it was run: as §1

Chain of SEAP-His (P05187 23-511 limits assumed): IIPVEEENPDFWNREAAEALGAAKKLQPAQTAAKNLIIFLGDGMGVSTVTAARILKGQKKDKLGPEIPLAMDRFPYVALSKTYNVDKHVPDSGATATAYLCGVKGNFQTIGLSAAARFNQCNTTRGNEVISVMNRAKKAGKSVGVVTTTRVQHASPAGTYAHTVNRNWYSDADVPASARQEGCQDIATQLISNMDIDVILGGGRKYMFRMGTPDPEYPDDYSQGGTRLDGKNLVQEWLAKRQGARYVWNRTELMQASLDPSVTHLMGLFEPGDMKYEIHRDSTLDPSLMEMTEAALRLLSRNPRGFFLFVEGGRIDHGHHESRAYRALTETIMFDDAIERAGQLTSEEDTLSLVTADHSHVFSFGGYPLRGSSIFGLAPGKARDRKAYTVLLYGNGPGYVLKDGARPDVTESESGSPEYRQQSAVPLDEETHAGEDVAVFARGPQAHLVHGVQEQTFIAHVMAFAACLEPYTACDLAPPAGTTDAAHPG
T4 sequence (P29317 24-537 limits assumed): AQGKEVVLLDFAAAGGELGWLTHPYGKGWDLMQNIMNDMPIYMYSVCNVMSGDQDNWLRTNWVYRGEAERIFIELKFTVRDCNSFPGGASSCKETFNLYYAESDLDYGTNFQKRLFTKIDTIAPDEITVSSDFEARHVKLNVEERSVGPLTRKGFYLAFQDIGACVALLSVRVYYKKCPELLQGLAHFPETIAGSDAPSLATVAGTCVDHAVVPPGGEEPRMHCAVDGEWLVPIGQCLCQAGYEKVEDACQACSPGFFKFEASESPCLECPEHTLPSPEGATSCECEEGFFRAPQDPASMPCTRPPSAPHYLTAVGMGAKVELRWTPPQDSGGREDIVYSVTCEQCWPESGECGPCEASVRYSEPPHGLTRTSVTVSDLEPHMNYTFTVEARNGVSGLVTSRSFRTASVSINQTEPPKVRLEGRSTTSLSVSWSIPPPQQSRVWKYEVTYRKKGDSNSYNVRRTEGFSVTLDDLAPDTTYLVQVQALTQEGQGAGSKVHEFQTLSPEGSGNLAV

Molecule | hEphB3-SEAP-: absorbance at 450 nm, percentage with respect to hEphA4-SEAP-His as 100% [1] [%] | SEAP-His: absorbance at 450 nm, percentage with respect to hEphA4-SEAP-His as 100% [2] [%] | hEphA3-SEAP-: absorbance at 450 nm, percentage with respect to hEphA4-SEAP-His as 100% [3] [%] | hEphA8-SEAP-: absorbance at 450 nm, percentage with respect to hEphA4-SEAP-His as 100% [4] [%] | hEphA2-SEAP-: absorbance at 450 nm, percentage with respect to hEphA4-SEAP-His as 100% [5] [%]
73 (antibody, V domains shown, synthetic humanized antibody heavy chain variable region sequence; synthetic humanized antibody light chain variable region sequence) VH: QIQLVQSGSELKKPGASVKVSCKASGYTFTDYSMHWVRQAPGQGLKWMGWINTETGEPTYADDFKGRFVFSLDTSVSTAYLQISSLKAEDTAVYYCARIPLYYYGSRYWYFDVWGQGTTVTVSS VL: EIVMTQSPATLSVSPGERATLSCRASENIYRNLAWYQQKPGQSPRLLIYAATNLADGIPARFSGSGSGTEYTLTISSLQSEDFAVYYCQHFWGTPWTFGQGTKVEIK | 5.8 | 5.8 | 5.8 | 5.8 | 5.7
139 (antibody, synthetic humanized antibody heavy chain variable region sequence; synthetic humanized antibody light chain variable region sequence; synthetic antibody constant region sequence) VH: QVQLVQSGSELKKPGASVKVSCKASGYTFTDYSMHWVRQAPGQGLEWMGWINTETGEPTYAQGFTGRFVFSLDTSVSTAYLQISSLKAEDTAVYYCARIPLYYYGSRYWYFDVWGQGTTVTVSS VL: DIQMTQSPSSLSASVGDRVTITCRASENIYRNLAWYQQKPGKAPKLLVYAATNLADGVPSRFSGSGSGTDYTLTISSLQPEDFATYYCQHFWGTPWTFGQGTKVEIK ASTKGPSVFPLAPSSRSTSESTAALGCLVKDYFPEPVTVSWNSGALTSGVHTFPAVLQSSGLYSLSSVVTVPSSNFGTQTYTCNVDHKPSNTKVDKTVERKSCVECPPCPAPPAAAPSVFLFPPKPKDTLMISRTPEVTCVVVDVSHEDPEVQFNWYVDGVEVHNAKTKPREEQFNSTFRVVSVLTVVHQDWLNGKEYKCKVSNKGLPAPIEKTISKTKGQPREPQVYTLPPSREEMTKNQVSLTCLVKGFYPSDIAVEWESNGQPENNYKTTPPMLDSDGSFFLYSKLTVDKSRWQQGNVFSCSVMHEALHNHYTQKSLSLSPG | 5.6 | 5.7 | 5.9 | 6.0 | 5.9
138 (antibody, V domains shown, synthetic humanized antibody heavy chain variable region sequence; synthetic humanized antibody light chain variable region sequence) VH: QIQLVQSGSELKKPGASVKVSCKASGYTFTDYSMHWVRQAPGQGLKWMGWINTETGEPTYAQGFTGRFVFSLDTSVSTAYLQISSLKAEDTAVYYCARIPLYYYGSRYWYFDVWGQGTTVTVSS VL: DIQMTQSPSSLSASVGDRVTITCRASENIYRNLAWYQQKPGKAPKLLVYAATNLADGVPSRFSGSGSGTDYTLTISSLQPEDFATYYCQHFWGTPWTFGQGTKVEIK | 5.1 | 5.1 | 4.9 | 5.4 | 5.0
140 (antibody, V domains shown, synthetic humanized antibody heavy chain variable region sequence; synthetic humanized antibody light chain variable region sequence) VH: QVQLVQSGSELKKPGASVKVSCKASGYTFTDYSMHWVRQAPGQGLKWMGWINTETGEPTYAQGFTGRFVFSLDTSVSTAYLQISSLKAEDTAVYYCARIPLYYYGSRYWYFDVWGQGTTVTVSS VL: DIQMTQSPSSLSASVGDRVTITCRASENIYRNLAWYQQKPGKAPKLLVYAATNLADGVPSRFSGSGSGTDYTLTISSLQPEDFATYYCQHFWGTPWTFGQGTKVEIK | 5.4 | 5.4 | 5.5 | 5.4 | 5.3

The next lines start with the values.

hEphB3-SEAP-: absorbance at 450 nm, percentage with respect to hEphA4-SEAP-His as 100% [1] [%] | SEAP-His: absorbance at 450 nm, percentage with respect to hEphA4-SEAP-His as 100% [2] [%] | hEphA3-SEAP-: absorbance at 450 nm, percentage with respect to hEphA4-SEAP-His as 100% [3] [%] | hEphA8-SEAP-: absorbance at 450 nm, percentage with respect to hEphA4-SEAP-His as 100% [4] [%] | hEphA2-SEAP-: absorbance at 450 nm, percentage with respect to hEphA4-SEAP-His as 100% [5] [%] | Molecule
5.6 | 5.8 | 5.5 | 5.7 | 5.6 | 142 (antibody, V domains shown, synthetic humanized antibody heavy chain variable region sequence; synthetic humanized antibody light chain variable region sequence) VH: QVQLVQSGSELKKPGASVKVSCKASGYTFTDYSMHWVRQAPGQGLKWMGWINTETGEPTYADDFKGRFVFSLDTSVSTAYLQISSLKAEDTAVYYCARIPLYYYGSRYWYFDVWGQGTTVTVSS VL: DIQMTQSPSSLSASVGDRVTITCRASENIYRNLAWYQQKPGKAPKLLVYAATNLADGVPSRFSGSGSGTDYTLTISSLQPEDFATYYCQHFWGTPWTFGQGTKVEIK
5.2 | 5.0 | 5.3 | 5.5 | 5.2 | 141 (antibody, V domains shown, synthetic humanized antibody heavy chain variable region sequence; synthetic humanized antibody light chain variable region sequence) VH: QVQLVQSGSELKKPGASVKVSCKASGYTFTDYSMHWVRQAPGQGLEWMGWINTETGEPTYADDFKGRFVFSLDTSVSTAYLQISSLKAEDTAVYYCARIPLYYYGSRYWYFDVWGQGTTVTVSS VL: DIQMTQSPSSLSASVGDRVTITCRASENIYRNLAWYQQKPGKAPKLLVYAATNLADGVPSRFSGSGSGTDYTLTISSLQPEDFATYYCQHFWGTPWTFGQGTKVEIK
